Assay results reported in US20100129369A1 (Eli Lilly, published 2010).

Tests used:
RON-ECD-Fc [1] = target: T1, RON-ECD-Fc (human, UniProt Q04912 25-957); assay: ELISA, coated ECD-Fc, antibody 12.860 ng/mL
T1 construct: extracellular domain; Bought reagent; not shown: Fc part of the bought fusion
T1 sequence (looked up): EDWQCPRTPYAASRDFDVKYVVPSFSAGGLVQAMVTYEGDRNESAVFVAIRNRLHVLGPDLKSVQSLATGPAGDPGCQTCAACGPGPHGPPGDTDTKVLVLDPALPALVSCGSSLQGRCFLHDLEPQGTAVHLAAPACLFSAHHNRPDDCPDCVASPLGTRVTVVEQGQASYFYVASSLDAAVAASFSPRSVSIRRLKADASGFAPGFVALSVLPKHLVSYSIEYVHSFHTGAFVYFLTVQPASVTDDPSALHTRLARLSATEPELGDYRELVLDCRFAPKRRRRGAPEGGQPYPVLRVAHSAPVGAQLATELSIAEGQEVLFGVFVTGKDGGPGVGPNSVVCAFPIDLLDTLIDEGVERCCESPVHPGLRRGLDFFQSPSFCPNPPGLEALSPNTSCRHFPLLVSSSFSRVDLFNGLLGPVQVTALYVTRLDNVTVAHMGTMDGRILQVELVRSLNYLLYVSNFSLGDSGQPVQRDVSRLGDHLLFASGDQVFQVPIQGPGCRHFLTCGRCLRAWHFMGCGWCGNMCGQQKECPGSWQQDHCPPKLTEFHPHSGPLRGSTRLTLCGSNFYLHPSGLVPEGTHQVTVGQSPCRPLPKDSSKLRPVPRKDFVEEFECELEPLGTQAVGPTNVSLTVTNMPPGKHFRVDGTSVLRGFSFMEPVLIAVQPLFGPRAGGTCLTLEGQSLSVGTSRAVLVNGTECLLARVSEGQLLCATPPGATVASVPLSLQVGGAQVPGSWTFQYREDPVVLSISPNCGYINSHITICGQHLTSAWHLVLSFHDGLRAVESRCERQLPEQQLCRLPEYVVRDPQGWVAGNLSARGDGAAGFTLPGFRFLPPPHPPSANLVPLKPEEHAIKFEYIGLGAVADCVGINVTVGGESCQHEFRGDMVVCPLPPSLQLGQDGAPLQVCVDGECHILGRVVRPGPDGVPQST
Procedure: (§1) Wells of 96-well EIA/RIA high binding plates (Costar, #2592) are coated with 100 μL of 1 μg/mL human c-Met extracellular domain (ECD)-Fc-Flis fusion (SEQ ID NO:72), RON-ECD-Fc (R&D Systems, #1947-MS), or PlexinA2-ECD-Fc (Abnova, Taipei, Taiwan #H00005362-P01) in coating buffer (BioFX Labs, # COAT-1000-01) overnight at 4° C. […] After the plates are washed, 100 μL/well of substrate solution (BioFx, #TMBW-1000-01) are added and the plates are incubated for 10 min. at room temperature. 100 μL/well of stop solution (BioFx, # LSTP-1000-01) are added to stop the reaction. The colorimetric signals are developed and read at 450 nm using a SpectraMax 190 plate reader (Molecular Devices, Sunnyvale, Calif.). c-Met antibody binding to c-Met, RON and PlexinA2 ECDs is proportional to color signal production.

Human c-Met-Flis-Fc ECD = target: T2, Human c-Met-Flis-Fc ECD (human); assay: ELISA, coated ECD-Fc, antibody 12.860 ng/mL
T2 construct: also called human c-Met extracellular domain (ECD)-Fc-Flis fusion; Human cMet-ECD-Fc-Flis
T2 sequence (chain, as listed by the source limits assumed): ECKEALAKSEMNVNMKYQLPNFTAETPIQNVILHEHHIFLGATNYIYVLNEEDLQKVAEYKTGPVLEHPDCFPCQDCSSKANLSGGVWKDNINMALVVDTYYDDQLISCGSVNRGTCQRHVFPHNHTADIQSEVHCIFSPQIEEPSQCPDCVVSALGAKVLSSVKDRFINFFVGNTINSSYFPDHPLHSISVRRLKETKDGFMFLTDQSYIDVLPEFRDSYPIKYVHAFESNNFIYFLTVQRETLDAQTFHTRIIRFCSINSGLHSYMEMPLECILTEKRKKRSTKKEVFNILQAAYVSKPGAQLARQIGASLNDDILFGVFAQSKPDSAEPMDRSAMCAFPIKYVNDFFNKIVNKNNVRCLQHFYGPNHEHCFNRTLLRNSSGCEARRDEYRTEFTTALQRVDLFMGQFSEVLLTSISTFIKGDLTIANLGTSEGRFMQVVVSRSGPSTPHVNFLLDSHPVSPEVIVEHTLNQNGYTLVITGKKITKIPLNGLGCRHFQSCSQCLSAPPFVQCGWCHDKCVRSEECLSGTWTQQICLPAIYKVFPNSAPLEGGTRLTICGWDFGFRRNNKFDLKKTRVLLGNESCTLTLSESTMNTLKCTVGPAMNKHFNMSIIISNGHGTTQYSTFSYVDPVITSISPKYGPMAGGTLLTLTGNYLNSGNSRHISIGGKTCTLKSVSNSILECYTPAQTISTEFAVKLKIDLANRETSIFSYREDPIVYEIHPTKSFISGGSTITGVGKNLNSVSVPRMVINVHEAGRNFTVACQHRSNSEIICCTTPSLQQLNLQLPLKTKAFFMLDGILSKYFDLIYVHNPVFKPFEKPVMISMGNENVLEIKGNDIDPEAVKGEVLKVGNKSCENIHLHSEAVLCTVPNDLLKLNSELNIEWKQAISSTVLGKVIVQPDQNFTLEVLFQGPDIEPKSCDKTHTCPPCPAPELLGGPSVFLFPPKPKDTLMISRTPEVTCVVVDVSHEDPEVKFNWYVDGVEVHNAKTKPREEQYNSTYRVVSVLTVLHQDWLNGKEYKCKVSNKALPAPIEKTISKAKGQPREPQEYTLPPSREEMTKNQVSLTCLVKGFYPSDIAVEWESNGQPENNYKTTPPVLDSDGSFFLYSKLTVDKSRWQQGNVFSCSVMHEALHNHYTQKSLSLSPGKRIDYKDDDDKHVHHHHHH
Procedure: as §1

PlexinA2-ECD-Fc [2] = target: T3, PlexinA2-ECD-Fc (human, UniProt O75051 35-1237); assay: ELISA, coated ECD-Fc, antibody 12.860 ng/mL
T3 construct: extracellular domain; Bought reagent
T3 sequence (looked up): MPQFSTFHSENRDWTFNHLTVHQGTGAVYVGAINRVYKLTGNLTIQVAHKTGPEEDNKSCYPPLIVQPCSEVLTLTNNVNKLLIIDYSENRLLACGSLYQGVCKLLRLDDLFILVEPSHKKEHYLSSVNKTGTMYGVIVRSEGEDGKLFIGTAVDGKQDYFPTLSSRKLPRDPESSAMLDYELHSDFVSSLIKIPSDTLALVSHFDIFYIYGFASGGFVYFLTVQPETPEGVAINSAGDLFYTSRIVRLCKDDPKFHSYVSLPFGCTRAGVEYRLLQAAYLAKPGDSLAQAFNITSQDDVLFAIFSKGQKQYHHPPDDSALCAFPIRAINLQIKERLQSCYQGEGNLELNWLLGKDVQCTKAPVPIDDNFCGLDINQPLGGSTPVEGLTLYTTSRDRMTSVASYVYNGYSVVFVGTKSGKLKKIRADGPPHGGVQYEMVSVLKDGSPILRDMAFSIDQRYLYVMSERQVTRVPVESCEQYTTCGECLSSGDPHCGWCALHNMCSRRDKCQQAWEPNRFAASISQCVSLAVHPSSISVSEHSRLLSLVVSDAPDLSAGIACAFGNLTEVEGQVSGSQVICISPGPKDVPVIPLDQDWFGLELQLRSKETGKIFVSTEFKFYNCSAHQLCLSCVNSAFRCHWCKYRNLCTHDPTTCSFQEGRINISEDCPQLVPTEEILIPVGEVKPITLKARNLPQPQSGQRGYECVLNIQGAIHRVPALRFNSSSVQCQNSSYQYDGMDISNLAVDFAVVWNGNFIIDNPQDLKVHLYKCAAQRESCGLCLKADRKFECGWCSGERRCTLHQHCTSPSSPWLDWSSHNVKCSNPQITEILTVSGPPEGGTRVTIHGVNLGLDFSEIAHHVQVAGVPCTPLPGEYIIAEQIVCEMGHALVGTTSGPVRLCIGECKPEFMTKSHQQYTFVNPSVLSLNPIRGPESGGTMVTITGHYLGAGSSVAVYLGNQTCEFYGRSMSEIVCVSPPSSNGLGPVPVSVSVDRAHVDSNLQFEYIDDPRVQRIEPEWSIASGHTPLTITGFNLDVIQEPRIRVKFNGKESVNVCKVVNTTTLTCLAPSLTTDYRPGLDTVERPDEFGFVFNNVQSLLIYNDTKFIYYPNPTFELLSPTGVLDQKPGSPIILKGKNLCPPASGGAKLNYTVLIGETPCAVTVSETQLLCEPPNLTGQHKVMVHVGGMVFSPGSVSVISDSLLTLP
Procedure: as §1

RON-ECD-Fc [3] = target: T1, RON-ECD-Fc; assay: ELISA, coated ECD-Fc, antibody 100000.000 ng/mL
Procedure: as §1

PlexinA2-ECD-Fc [4] = target: T3, PlexinA2-ECD-Fc; assay: ELISA, coated ECD-Fc, antibody 100000.000 ng/mL
Procedure: as §1

PlexinA2-ECD-Fc [5] = target: T3, PlexinA2-ECD-Fc; assay: ELISA, coated ECD-Fc, antibody 0.010 ng/mL

Average A450 nm (RON-ECD-Fc [1]): 0.087 A450 nm
Average A450 nm (Human c-Met-Flis-Fc ECD): 4 A450 nm
Average A450 nm (PlexinA2-ECD-Fc [2]): 0.085 A450 nm
Average A450 nm (RON-ECD-Fc [3]): 0.17 A450 nm
Average A450 nm (PlexinA2-ECD-Fc [4]): 0.171 A450 nm
Average A450 nm (PlexinA2-ECD-Fc [5]): 0.095 A450 nm
B1: C8-6 (antibody, human IgG2, kappa, V domains shown)
VH: QVQLVQSGAEVKKPGASVKVSCKASGYTFTDYYMHWVRQAPGQGLEWMGRVNPNRGGTTYNQKFEGRVTMTTDTSTSTAYMELRSLRSDDTAVYYCARTNWLDYWGQGTTVTVSS
VL: DIQMTQSPSSLSASVGDRVTITCSVSSSVSSIYLHWYQQKPGKAPKLLIYSTSNLASGVPSRFSGSGSGTDFTLTISSLQPEDFATYYCIQYSGYPLTFGGGTKVEIKR
notes: Called IgG4, kappa; also called Mab C8-6
